Data taken from patent US20170044259A1 (CYTOMX THERAPEUTICS, published 2017).
Substitutions are numbered along the chain they refer to. Each block holds one binder with its values, some of them ahead of it.

Key:
pembrolizumab = molecular target: T1, pembrolizumab; assay: bacterial display clone with labeled PM1
T1 construct: also called PM1; PM1 AB

[1] = molecular target: T2, human PD-1-Fc (R and D systems, Minneapolis, Minn.) (human, UniProt Q15116 25-167); assay: plate ELISA on human PD-1-Fc; reference A1.5
T2 construct: bought; also called hPD-1-Fc; hPD-1; not shown: Fc part of the bought fusion
T2 sequence (Q15116 25-167 limits assumed): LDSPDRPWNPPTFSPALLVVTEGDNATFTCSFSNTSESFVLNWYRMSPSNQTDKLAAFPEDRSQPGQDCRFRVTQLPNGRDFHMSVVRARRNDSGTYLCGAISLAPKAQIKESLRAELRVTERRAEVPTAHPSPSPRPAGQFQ

[2] = molecular target: T2, human PD-1-Fc (R and D systems, …); assay: plate ELISA on human PD-1-Fc; reference A1.5; remark: listed apart in the source
[3] = molecular target: T2, human PD-1-Fc (R and D systems, …); assay: plate ELISA on human PD-1-Fc; apparent KD
nivolumab = molecular target: T3, nivolumab; assay: bacterial display clone with labeled NV1
T3 construct: also called NV1; NV1 nivo
T3 sequence (VH, as listed by the source, chain 1 of 2): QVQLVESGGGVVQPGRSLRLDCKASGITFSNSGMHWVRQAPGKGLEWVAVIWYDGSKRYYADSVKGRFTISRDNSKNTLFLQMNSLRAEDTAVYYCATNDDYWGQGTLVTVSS
T3 sequence (VL, as listed by the source, chain 2 of 2): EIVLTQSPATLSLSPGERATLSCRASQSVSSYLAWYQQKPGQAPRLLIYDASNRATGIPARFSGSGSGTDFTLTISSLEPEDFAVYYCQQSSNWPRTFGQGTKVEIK

J43v2 mIgG2a = molecular target: T4, J43v2 mIgG2a; assay: bacterial display clone with DyLight 650 labeled J43v2 m2a
T4 construct: also called J43 m2a; J43v2 m2a
T4 sequence (VH, as listed by the source, chain 1 of 2): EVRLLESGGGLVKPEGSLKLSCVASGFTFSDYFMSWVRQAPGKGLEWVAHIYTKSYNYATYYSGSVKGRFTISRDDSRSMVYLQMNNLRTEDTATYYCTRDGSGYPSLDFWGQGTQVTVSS
T4 sequence (VL, as listed by the source, chain 2 of 2): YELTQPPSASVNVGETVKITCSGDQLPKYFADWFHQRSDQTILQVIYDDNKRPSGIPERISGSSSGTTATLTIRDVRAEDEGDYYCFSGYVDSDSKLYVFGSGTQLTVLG

[4] = molecular target: T2, human PD-1-Fc (R and D systems, …); assay: plate ELISA on human PD-1-Fc

T1 sequence (VH, as listed by the source, chain 1 of 2): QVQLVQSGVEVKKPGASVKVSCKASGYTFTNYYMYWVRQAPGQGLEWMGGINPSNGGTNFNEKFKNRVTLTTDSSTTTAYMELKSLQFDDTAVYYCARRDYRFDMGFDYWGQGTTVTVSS
T1 sequence (VL, as listed by the source, chain 2 of 2): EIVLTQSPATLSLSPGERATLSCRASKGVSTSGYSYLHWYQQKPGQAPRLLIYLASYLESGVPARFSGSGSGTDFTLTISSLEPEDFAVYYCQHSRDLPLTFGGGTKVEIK

Binder: ISHYCFSGKSCRD (bacterial display clone) [masking moiety PM11]
binding result (pembrolizumab): binds

B1: PD-1 1.5 PD019 2001 (antibody, human IgG4 S228P, kappa)
heavy: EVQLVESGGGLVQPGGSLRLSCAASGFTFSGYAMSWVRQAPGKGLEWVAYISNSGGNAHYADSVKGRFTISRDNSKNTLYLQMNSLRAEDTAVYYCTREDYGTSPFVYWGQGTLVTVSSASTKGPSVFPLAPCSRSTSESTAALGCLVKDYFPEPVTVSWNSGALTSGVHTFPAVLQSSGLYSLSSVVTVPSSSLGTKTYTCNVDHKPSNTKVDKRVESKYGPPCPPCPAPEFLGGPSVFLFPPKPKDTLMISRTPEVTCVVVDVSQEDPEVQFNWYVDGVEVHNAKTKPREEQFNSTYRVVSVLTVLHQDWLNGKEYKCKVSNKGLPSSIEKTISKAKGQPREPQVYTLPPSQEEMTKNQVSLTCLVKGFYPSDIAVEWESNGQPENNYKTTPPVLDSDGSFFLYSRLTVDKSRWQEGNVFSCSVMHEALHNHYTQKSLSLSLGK
light: QGQSGQGPCDQNPYFYPYVCHAGGGSSGGSISSGLLSGRSDNHGGGSDIQLTQSPSSLSASVGDRVTITCRASESVDAYGISFMNWFQQKPGKAPKLLIYAASNQGSGVPSRFSGSGSGTDFTLTISSMQPEDFATYYCQQSKDVPWTFGQGTKLEIKRTVAAPSVFIFPPSDEQLKSGTASVVCLLNNFYPREAKVQWKVDNALQSGNSQESVTEQDSKDSTYSLSSTLTLSKADYEKHKVYACEVTHQGLSSPVTKSFNRGEC
notes: also called PD-19
Masking Efficiency [1]: 52
ME (masking efficiency, Kd of the activatable antibody divided by Kd of the parental antibody) [2]: 30
Kd [3]: 93 nM

Binder: FCAVMFDFLSDRCLH (bacterial display clone) [masking moiety PM03]
binding result (pembrolizumab): binds

Binder: PRPQCHHRHNCPDHP (bacterial display clone) [masking moiety NV03]
binding result (nivolumab): binds

Binder: LMCADLHYNHYNCKY (bacterial display clone) [masking moiety PM06]
binding result (pembrolizumab): binds

B2: masking moiety MP014 (peptide)
peptide: ANSCLAVEHKCKHNY
notes: bacterial display clone; also called MP14
binding result (J43v2 mIgG2a): binds

B3: masking moiety NV02 (peptide)
peptide: PRVCSTDGGDYCLLP
notes: bacterial display clone; also called NV002
binding result (nivolumab): binds

Binder: KLTEDFSSAA (bacterial display clone) [masking moiety PM09]
binding result (pembrolizumab): binds

Binder: ELCGWQSFSGVCTSE (bacterial display clone) [masking moiety PM07]
binding result (pembrolizumab): binds

Binder: ASYRCPDYKCSHTKH (bacterial display clone) [masking moiety NV05]
binding result (nivolumab): binds

Binder: PRVACGEPDLCYSNT (bacterial display clone) [masking moiety NV11]
binding result (nivolumab): binds

Binder: MSCWDFSSAQGCGQH (bacterial display clone) [masking moiety PM05]
binding result (pembrolizumab): binds

B4: masking moiety PM01 (peptide)
peptide: GCDFTSAKHNCGSGW
notes: bacterial display clone; also called PM001
binding result (pembrolizumab): binds

Binder: RGCKKHTISTLTCPD (bacterial display clone) [masking moiety NV12]
binding result (nivolumab): binds

Binder: RDYCGPQSPDYCHEI (bacterial display clone) [masking moiety NV09]
binding result (nivolumab): binds

B5: PD-1 1.5 PD006 2001 (antibody, human IgG4 S228P, kappa)
heavy: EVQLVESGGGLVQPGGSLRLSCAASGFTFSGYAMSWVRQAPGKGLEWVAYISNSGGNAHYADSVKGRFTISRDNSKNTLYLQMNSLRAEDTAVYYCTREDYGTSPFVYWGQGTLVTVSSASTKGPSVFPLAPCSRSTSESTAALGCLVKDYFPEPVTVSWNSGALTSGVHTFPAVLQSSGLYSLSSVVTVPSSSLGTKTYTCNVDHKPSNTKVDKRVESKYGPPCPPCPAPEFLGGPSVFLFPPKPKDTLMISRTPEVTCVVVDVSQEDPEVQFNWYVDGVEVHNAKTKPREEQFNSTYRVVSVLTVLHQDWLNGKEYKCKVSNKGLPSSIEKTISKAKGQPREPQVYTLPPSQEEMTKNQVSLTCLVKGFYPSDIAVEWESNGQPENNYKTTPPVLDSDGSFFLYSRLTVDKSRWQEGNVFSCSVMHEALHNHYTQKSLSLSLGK
light: QGQSGQGAPRCYMFASYCKSQYGGGSSGGSISSGLLSGRSDNHGGGSDIQLTQSPSSLSASVGDRVTITCRASESVDAYGISFMNWFQQKPGKAPKLLIYAASNQGSGVPSRFSGSGSGTDFTLTISSMQPEDFATYYCQQSKDVPWTFGQGTKLEIKRTVAAPSVFIFPPSDEQLKSGTASVVCLLNNFYPREAKVQWKVDNALQSGNSQESVTEQDSKDSTYSLSSTLTLSKADYEKHKVYACEVTHQGLSSPVTKSFNRGEC
Masking Efficiency [1]: 39
ME (masking efficiency, Kd of the activatable antibody divided by Kd of the parental antibody) [2]: 30
Kd [3]: 71 nM

B6: PD-1 1.5 PD028 2001 (antibody, human IgG4 S228P, kappa)
heavy: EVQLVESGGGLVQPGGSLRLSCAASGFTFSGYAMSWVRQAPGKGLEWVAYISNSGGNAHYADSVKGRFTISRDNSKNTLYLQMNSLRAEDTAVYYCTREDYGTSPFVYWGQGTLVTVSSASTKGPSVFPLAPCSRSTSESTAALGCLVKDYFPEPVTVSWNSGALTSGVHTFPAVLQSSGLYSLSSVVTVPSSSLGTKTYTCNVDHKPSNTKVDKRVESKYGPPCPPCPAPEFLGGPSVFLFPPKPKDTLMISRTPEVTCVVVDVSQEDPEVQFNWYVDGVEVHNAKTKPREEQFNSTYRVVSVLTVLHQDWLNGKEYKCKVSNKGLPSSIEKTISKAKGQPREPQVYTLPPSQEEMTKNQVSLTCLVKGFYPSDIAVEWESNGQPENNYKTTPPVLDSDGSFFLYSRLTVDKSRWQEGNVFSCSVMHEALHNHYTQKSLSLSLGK
light: B5 light with A8F, P9Q, R10P, Y12L, Y17S, K19F, S20T, Q21S, Y22K
ME (masking efficiency, Kd of the activatable antibody divided by Kd of the parental antibody) [2]: 25

B7: PD-1 1.5 PD009 2001 (antibody, human IgG4 S228P, kappa)
heavy: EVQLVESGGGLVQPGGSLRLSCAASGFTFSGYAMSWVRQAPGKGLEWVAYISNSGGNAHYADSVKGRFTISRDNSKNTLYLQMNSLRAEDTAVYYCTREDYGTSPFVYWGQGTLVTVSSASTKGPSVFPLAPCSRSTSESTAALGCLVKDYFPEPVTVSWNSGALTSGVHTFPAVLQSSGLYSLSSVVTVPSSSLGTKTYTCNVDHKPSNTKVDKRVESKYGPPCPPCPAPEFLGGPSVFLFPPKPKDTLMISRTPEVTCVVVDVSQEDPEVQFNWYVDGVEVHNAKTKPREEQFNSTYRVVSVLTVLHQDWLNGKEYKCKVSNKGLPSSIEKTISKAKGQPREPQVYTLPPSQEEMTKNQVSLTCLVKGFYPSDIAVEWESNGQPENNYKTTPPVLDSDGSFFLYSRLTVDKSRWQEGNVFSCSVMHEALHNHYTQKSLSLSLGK
light: QGQSGQGAPRTCYTYQCSSFYTGGGSSGGSISSGLLSGRSDNHGGGSDIQLTQSPSSLSASVGDRVTITCRASESVDAYGISFMNWFQQKPGKAPKLLIYAASNQGSGVPSRFSGSGSGTDFTLTISSMQPEDFATYYCQQSKDVPWTFGQGTKLEIKRTVAAPSVFIFPPSDEQLKSGTASVVCLLNNFYPREAKVQWKVDNALQSGNSQESVTEQDSKDSTYSLSSTLTLSKADYEKHKVYACEVTHQGLSSPVTKSFNRGEC
Masking Efficiency [1]: 6
ME (masking efficiency, Kd of the activatable antibody divided by Kd of the parental antibody) [2]: 2
Kd [3]: 10 nM

B9: A1.5 PD34 2001 (antibody, human IgG4 S228P, kappa)
heavy: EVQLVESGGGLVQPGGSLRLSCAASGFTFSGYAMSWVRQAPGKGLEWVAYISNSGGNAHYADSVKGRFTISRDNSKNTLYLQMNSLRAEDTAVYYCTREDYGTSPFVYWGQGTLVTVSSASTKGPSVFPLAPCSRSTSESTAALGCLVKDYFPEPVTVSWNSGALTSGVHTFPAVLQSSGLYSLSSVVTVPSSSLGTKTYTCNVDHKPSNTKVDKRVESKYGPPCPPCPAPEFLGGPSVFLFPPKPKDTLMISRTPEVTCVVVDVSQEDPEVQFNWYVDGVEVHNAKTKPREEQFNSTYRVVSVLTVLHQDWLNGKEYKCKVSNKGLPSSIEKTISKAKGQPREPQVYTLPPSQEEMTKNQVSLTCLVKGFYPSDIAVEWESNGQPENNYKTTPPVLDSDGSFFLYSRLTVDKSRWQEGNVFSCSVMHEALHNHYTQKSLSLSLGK
light: QGQSGQGTSYCSIEHYPCNTHHGGGSSGGSISSGLLSGRSDNHGGGSDIQLTQSPSSLSASVGDRVTITCRASESVDAYGISFMNWFQQKPGKAPKLLIYAASNQGSGVPSRFSGSGSGTDFTLTISSMQPEDFATYYCQQSKDVPWTFGQGTKLEIKRTVAAPSVFIFPPSDEQLKSGTASVVCLLNNFYPREAKVQWKVDNALQSGNSQESVTEQDSKDSTYSLSSTLTLSKADYEKHKVYACEVTHQGLSSPVTKSFNRGEC
notes: also called PD-1 1.5 PD034 2001; PD1 1.5 PD34 2001
ME (masking efficiency, Kd of the activatable antibody divided by Kd of the parental antibody) [2]: 42

B10: PD-1 1.5 PD012 2001 (antibody, human IgG4 S228P, kappa)
heavy: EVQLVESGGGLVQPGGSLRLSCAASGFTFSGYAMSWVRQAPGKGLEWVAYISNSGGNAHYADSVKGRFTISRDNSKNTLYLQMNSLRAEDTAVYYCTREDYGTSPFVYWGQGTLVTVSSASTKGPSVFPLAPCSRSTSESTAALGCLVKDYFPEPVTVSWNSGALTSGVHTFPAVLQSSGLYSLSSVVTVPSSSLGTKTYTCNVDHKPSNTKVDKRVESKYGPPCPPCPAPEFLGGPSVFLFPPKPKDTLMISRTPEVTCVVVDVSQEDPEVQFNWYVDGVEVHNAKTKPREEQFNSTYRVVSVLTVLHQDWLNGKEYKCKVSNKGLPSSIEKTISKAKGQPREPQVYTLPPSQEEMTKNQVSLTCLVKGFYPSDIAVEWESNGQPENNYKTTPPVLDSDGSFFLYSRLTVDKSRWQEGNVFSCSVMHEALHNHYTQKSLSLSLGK
light: QGQSGQGNWLDCQFYSECSVYGGGGSSGGSISSGLLSGRSDNHGGGSDIQLTQSPSSLSASVGDRVTITCRASESVDAYGISFMNWFQQKPGKAPKLLIYAASNQGSGVPSRFSGSGSGTDFTLTISSMQPEDFATYYCQQSKDVPWTFGQGTKLEIKRTVAAPSVFIFPPSDEQLKSGTASVVCLLNNFYPREAKVQWKVDNALQSGNSQESVTEQDSKDSTYSLSSTLTLSKADYEKHKVYACEVTHQGLSSPVTKSFNRGEC
notes: also called PD-12
Masking Efficiency [1]: 14
ME (masking efficiency, Kd of the activatable antibody divided by Kd of the parental antibody) [2]: 10
Kd [3]: 25 nM

B11: PD-1 1.5 PD017 2001 (antibody, human IgG4 S228P, kappa)
heavy: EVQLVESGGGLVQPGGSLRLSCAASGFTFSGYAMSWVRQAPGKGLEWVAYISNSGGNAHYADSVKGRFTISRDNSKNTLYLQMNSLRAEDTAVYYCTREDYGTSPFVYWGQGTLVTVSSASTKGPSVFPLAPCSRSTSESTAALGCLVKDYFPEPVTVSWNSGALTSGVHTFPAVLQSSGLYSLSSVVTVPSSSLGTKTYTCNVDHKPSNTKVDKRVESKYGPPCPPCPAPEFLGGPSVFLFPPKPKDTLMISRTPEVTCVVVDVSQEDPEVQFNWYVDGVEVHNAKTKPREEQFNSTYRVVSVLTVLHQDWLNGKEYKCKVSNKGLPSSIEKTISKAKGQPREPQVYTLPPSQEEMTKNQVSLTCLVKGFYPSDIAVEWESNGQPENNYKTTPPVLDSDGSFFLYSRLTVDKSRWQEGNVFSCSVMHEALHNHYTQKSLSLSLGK
light: QGQSGQGTTCNLYQQSSMFCNAGGGSSGGSISSGLLSGRSDNHGGGSDIQLTQSPSSLSASVGDRVTITCRASESVDAYGISFMNWFQQKPGKAPKLLIYAASNQGSGVPSRFSGSGSGTDFTLTISSMQPEDFATYYCQQSKDVPWTFGQGTKLEIKRTVAAPSVFIFPPSDEQLKSGTASVVCLLNNFYPREAKVQWKVDNALQSGNSQESVTEQDSKDSTYSLSSTLTLSKADYEKHKVYACEVTHQGLSSPVTKSFNRGEC
notes: also called PD-17
Masking Efficiency [1]: 12
ME (masking efficiency, Kd of the activatable antibody divided by Kd of the parental antibody) [2]: 20
Kd [3]: 22 nM

B12: PD-1 1.5 PD026 2001 (antibody, human IgG4 S228P, kappa)
heavy: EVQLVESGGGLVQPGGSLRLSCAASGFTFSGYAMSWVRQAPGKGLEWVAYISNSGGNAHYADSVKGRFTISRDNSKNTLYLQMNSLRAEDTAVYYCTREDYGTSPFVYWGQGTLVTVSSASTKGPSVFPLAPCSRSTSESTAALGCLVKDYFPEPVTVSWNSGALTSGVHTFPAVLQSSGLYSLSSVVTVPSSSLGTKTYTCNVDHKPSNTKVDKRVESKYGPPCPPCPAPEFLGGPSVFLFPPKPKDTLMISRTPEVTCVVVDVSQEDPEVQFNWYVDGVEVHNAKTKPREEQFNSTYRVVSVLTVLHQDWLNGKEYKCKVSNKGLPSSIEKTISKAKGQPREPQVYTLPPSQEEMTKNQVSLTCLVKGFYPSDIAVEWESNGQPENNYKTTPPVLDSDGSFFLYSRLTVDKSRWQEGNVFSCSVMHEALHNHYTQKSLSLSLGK
light: B11 light with T8G, T9M, N11S, L12A, Q14A, Q15Y, M18K, F19L, N21T, A22I
ME (masking efficiency, Kd of the activatable antibody divided by Kd of the parental antibody) [2]: 20

B13: PD-1 1.5 PD025 2001 (antibody, human IgG4 S228P, kappa)
heavy: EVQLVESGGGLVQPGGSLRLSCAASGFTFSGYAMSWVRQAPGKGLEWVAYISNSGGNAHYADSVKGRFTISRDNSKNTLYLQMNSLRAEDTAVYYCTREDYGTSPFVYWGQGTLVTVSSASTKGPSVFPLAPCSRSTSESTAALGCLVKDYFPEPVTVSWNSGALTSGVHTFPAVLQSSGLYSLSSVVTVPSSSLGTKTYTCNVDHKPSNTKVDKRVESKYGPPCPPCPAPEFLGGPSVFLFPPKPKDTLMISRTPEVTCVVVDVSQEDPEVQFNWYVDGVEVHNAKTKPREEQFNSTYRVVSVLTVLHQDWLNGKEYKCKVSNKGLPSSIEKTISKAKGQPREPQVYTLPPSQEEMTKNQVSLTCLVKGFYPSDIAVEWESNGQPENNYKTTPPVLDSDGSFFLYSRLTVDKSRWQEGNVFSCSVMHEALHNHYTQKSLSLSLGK
light: B11 light with T8S, T9R, N11S, L12V, Q14E, Q15V, M18G, F19L, N21D, A22W
ME (masking efficiency, Kd of the activatable antibody divided by Kd of the parental antibody) [2]: 30

B14: A1.0 (antibody, human IgG4 S228P, kappa, V domains shown)
VH: EVQLVESGGGLVQPGGSLRLSCAASGFTFSGYAMSWVRQAPGKGLEWVAYISNSGGNAHYADSVKGRFTISRDNSKNTLYLQMNSLRAEDTAVYYCTREDYGTSPFVYWGQGTLVTVSS
VL: DIQLTQSPSSLSASVGDRVTITCRASESVDNYGISFMNWFQQKPGKAPKLLIYAASNQGSGVPSRFSGSGSGTDFTLTISSMQPEDFATYYCQQSKDVPWTFGQGTKLEIKR
notes: humanized, full length hIgG4/hKappa
binding result [4]: binds

Second part, the binder after the results:

binding result (pembrolizumab): binds
Binder: FCPPWLDYLGNKCMT (bacterial display clone) [masking moiety PM04]

binding result (pembrolizumab): binds
Binder: VGQSCFSGLVCDRQL (bacterial display clone) [masking moiety PM10]

binding result (J43v2 mIgG2a): binds
B8: masking moiety MP013 (peptide)
peptide: HYTICMTHNKCKDMA
notes: bacterial display clone; also called MP13

binding result (nivolumab): binds
Binder: RGCPDFNPPSHCYTA (bacterial display clone) [masking moiety NV08]

binding result (nivolumab): binds
Binder: LPRCPDHPIKCIETK (bacterial display clone) [masking moiety NV06]

binding result (nivolumab): binds
Binder: YTFGCPDRYCDRAAT (bacterial display clone) [masking moiety NV07]

binding result [4]: binds
B15: A1.2 (antibody, human IgG4 S228P, kappa, V domains shown)
VH: B14 VH
VL: B14 VL with N31Q
notes: as for B14

binding result (pembrolizumab): binds
Binder: HCIPDFTSAAGDCMR (bacterial display clone) [masking moiety PM12]

binding result (nivolumab): binds
B16: masking moiety NV01 (peptide)
peptide: RYCHAANPDRFCGIY
notes: bacterial display clone; also called NV001

binding result (nivolumab): binds
Binder: KCSRPAHQNPDRCSR (bacterial display clone) [masking moiety NV04]

binding result (J43v2 mIgG2a): binds
B17: masking moiety MP012 (peptide)
peptide: QPCNPQIDHKIKCIY
notes: bacterial display clone; also called MP12

binding result (pembrolizumab): binds
Binder: WTYENCWASCQPHLE (bacterial display clone) [masking moiety PM08]

binding result (nivolumab): binds
Binder: PNKPCPDLQCYVTNY (bacterial display clone) [masking moiety NV10]

binding result (pembrolizumab): binds
B18: masking moiety PM02 (peptide)
peptide: VGSNCWTGPACALTS
notes: bacterial display clone; also called PM002
